Patent publication US8518892B2, “Methods to treat symptoms of pathophysiology related to body mass” (Board of Supervisors of Louisiana State University and …, priority 2005, dated 2013)

Assays:
obese (ob/ob) mice = assay: Enho 1 ip for 8 days in obese (ob/ob) mice, serum lipids (Example 22); type: in vivo, mouse
Method: The effect of Enho-1 upon liver serum lipid content was tested over the course of 8 days using obese (ob/ob) mice. The mice were fed Research Diets 12450 and were approximately 9-10 weeks of age at the start of the experiment. Control mice received vehicle only while test mice each received doses of either 90 nmol/kg/d, 900 nmol/kg/d or 9000 nmol/kg/d. The injections were given as 3 ip injections at 0800, 1200 and 1600 h for 7 days. On day 8, the mice were given the 0800 h injection and were sacrificed 1-3 h later, at which time blood samples were taken.
Blood glucose levels were measured using an Accu-Chek glucometer. Insulin levels were measured by ELISA (Mercodia Mouse Insulin ELISA, ALPCO) while triglycerides were measured using a Triglyceride L-Type TG H kit (Wako Diagnostics).

[1] = system: diet induced obese (DIO) C57BL/6J mice; assay: Enho 1 ip for 3 days in diet induced obese C57BL/6J mice (Examples 19-21); type: in vivo, mouse
Method: (§1) The effect of Enho-1 upon weight loss was tested over the course of 3 days using diet induced obese (DIO) C57BL/6J mice (Jackson Laboratories, Bar Harbor, Me.). The mice were fed Research Diets 12492 (60% kJ/fat) for 12 weeks, resulting in obesity and moderate hyperglycemia in the animals. The mice were approximately 20-22 weeks of age and 30-50 g in weight at the start of the experiment. Fasting blood glucose was determined to be approximately 170-220 mg/dL. Six control mice received vehicle only while six test mice each received doses of either 90 nmol/kg/d, 900 nmol/kg/d or 9000 nmol/kg/d. The injections were given as 3 ip injections at 0600, 1400 and 2000 h on days 1 and 2; over the 3 day period, the mice received a total of 7 injections. All animals were euthanized 5 hours after the last injection given the morning of the third day. Food was removed after the final injection.
as §1, with “insulin and glucose” for “weight loss”
The HOMA-IR for each treatment was calculated using the following formula: ((glucose mg/dL÷18)×(insulin ng/ml×25.05))÷22.5
as §1, with “liver weight, liver lipid content and liver TG” for “weight loss”

[2] = 90 nmol/kg/d ip, listed as Enho-1
[3] = 900 nmol/kg/d ip, listed as Enho-1
[4] = 9000 nmol/kg/d ip, listed as Enho-1

B1: Enho 1: human Enho 1, a 76 amino acid peptide having the sequence SEQ ID NO: 14 (peptide, listed as Homo sapiens)
chain: MGAAISQGALIAIVCNGLVGFLLLLLWVILCWACHSRSADVDSLSESSPNSSPGPCPEKAPPPQKPSHEGSYLLQP
**Q.** Which results are given for B1?
**A.** TG (blood triglyceride level) (obese (ob/ob) mice; 90 nmol/kg/d ip): 19.4 mg/dL; TG decrease in comparison with the control (obese (ob/ob) mice; 90 nmol/kg/d ip): 34%; TG (blood triglyceride level) (obese (ob/ob) mice; [2]): 19.4 ± 2.2 mg/dL; TG decrease in comparison with the control (obese (ob/ob) mice; [2]): (↓ 34%); TG (blood triglyceride level) (obese (ob/ob) mice; 900 nmol/kg/d ip): 18.4 mg/dL; TG decrease in comparison with the control (obese (ob/ob) mice; 900 nmol/kg/d ip): 38%; TG (blood triglyceride level) (obese (ob/ob) mice; [3]): 18.4 ± 2.3 mg/dL; TG decrease in comparison with the control (obese (ob/ob) mice; [3]): (↓ 38%); TG (blood triglyceride level) (obese (ob/ob) mice; 9000 nmol/kg/d ip): 22.0 mg/dL; TG decrease in comparison with the control (obese (ob/ob) mice; 9000 nmol/kg/d ip): 26%; TG (blood triglyceride level) (obese (ob/ob) mice; [4]): 22.0 ± 2.2 mg/dL; TG decrease in comparison with the control (obese (ob/ob) mice; [4]): (↓ 26%); Blood glucose ([1]; 90 nmol/kg/d ip): 204 mg/dL; Delta body weight ([1]; 90 nmol/kg/d ip): 2.9%; HOMA-IR ([1]; 90 nmol/kg/d ip): 50; HOMA-IR decrease as compared to the control group ([1]; 90 nmol/kg/d ip): 15%; Insulin ([1]; 90 nmol/kg/d ip): 3.8 ng/mL; Liver TG ([1]; 90 nmol/kg/d ip): 57 mg/g; Liver TG total ([1]; 90 nmol/kg/d ip): 86 mg/g; Liver lipid ([1]; 90 nmol/kg/d ip): 126 mg/g; Liver lipid total ([1]; 90 nmol/kg/d ip): 188 mg/g; Liver weight ([1]; 90 nmol/kg/d ip): 1.5 grams; Liver weight % body weight ([1]; 90 nmol/kg/d ip): 3.6%; Weight (pre-treatment) ([1]; 90 nmol/kg/d ip): 42.9 g; Weight (termination) ([1]; 90 nmol/kg/d ip): 41.7 g; Blood glucose [1, 2]: 204 ± 7 mg/dL; HOMA-IR [1, 2]: 50 ± 5; HOMA-IR decrease as compared to the control group [1, 2]: (↓ 15%); Insulin [1, 2]: 3.8 ± 0.4 ng/mL; Liver TG [1, 2]: 57 ± 8 mg/g; Liver TG total [1, 2]: 86 ± 14 mg/g; Liver lipid [1, 2]: 126 ± 8 mg/g; Liver lipid total [1, 2]: 188 ± 13 mg/g; Liver weight [1, 2]: 1.5 ± 0.0 grams; Liver weight % body weight [1, 2]: 3.6 ± 0.1%; Weight (pre-treatment) [1, 2]: 42.9 ± 1.2 g; Weight (termination) [1, 2]: 41.7 ± 0.9 g; Delta body weight ([1]; 900 nmol/kg/d ip): 3.5%; HOMA-IR ([1]; 900 nmol/kg/d ip): 42; Insulin ([1]; 900 nmol/kg/d ip): 4.2 ng/mL; Liver TG ([1]; 900 nmol/kg/d ip): 48 mg/g; Liver TG total ([1]; 900 nmol/kg/d ip): 66 mg/g; Liver lipid ([1]; 900 nmol/kg/d ip): 137 mg/g; Liver lipid total ([1]; 900 nmol/kg/d ip): 226 mg/g; Liver weight ([1]; 900 nmol/kg/d ip): 1.5 grams; Liver weight % body weight ([1]; 900 nmol/kg/d ip): 3.5%; Weight (pre-treatment) ([1]; 900 nmol/kg/d ip): 42.8 g; Weight (termination) ([1]; 900 nmol/kg/d ip): 41.3 g; blood glucose levels decrease ([1]; 900 nmol/kg/d ip): approximately 15%; insulin levels reduction ([1]; 900 nmol/kg/d ip): about 14%; Blood glucose ([1]; 900 nmol/kg/d ip, P < 0.05 vs 90): 166 mg/dL; Blood glucose ([1]; 900 nmol/kg/d ip, P < 0.05 vs 90, listed as Enho-1): 166 ± 13 mg/dL; HOMA-IR [1, 3]: 42 ± 3; Insulin [1, 3]: 4.2 ± 0.5 ng/mL; Liver TG [1, 3]: 48 ± 12 mg/g; Liver TG total [1, 3]: 66 ± 14 mg/g; Liver lipid [1, 3]: 137 ± 34 mg/g; Liver lipid total [1, 3]: 226 ± 77 mg/g; Liver weight [1, 3]: 1.5 ± 0.2 grams; Liver weight % body weight [1, 3]: 3.5 ± 0.2%; Weight (pre-treatment) [1, 3]: 42.8 ± 2.9 g; Weight (termination) [1, 3]: 41.3 ± 2.7 g; HOMA-IR decrease as compared to the control group ([1]; 900 nmol/kg/d ip, p<0.02): 29%; HOMA-IR decrease as compared to the control group ([1]; 900 nmol/kg/d ip, p<0.02, listed as Enho-1): (↓ 29%); Blood glucose ([1]; 9000 nmol/kg/d ip): 198 mg/dL; Delta body weight ([1]; 9000 nmol/kg/d ip): 4.1%; HOMA-IR ([1]; 9000 nmol/kg/d ip): 52; HOMA-IR decrease as compared to the control group ([1]; 9000 nmol/kg/d ip): 12%; Insulin ([1]; 9000 nmol/kg/d ip): 4.2 ng/mL; Liver TG ([1]; 9000 nmol/kg/d ip): 47 mg/g; Liver TG total ([1]; 9000 nmol/kg/d ip): 63 mg/g; Liver lipid ([1]; 9000 nmol/kg/d ip): 139 mg/g; Liver lipid total ([1]; 9000 nmol/kg/d ip): 230 mg/g; Liver weight ([1]; 9000 nmol/kg/d ip): 1.4 grams; Liver weight % body weight ([1]; 9000 nmol/kg/d ip): 3.4%; Weight (pre-treatment) ([1]; 9000 nmol/kg/d ip): 42.7 g; Weight (termination) ([1]; 9000 nmol/kg/d ip): 40.9 g; liver TG reduction as compared to the control group ([1]; 9000 nmol/kg/d ip): 18-19%; Blood glucose [1, 4]: 198 ± 9 mg/dL; HOMA-IR [1, 4]: 52 ± 4; HOMA-IR decrease as compared to the control group [1, 4]: (↓ 12%); Insulin [1, 4]: 4.2 ± 0.3 ng/mL; Liver TG [1, 4]: 47 ± 9 mg/g; Liver TG total [1, 4]: 63 ± 10 mg/g; Liver lipid [1, 4]: 139 ± 42 mg/g; Liver lipid total [1, 4]: 230 ± 96 mg/g; Liver weight [1, 4]: 1.4 ± 0.2 grams; Liver weight % body weight [1, 4]: 3.4 ± 0.3%; Weight (pre-treatment) [1, 4]: 42.7 ± 1.6 g; Weight (termination) [1, 4]: 40.9 ± 1.6 g; serum TG reduction as compared to the control group ([1]; 9000 nmol/kg/d ip, p<0.05, 1-tailed t-test): 20%
